Assay results from paper PMC8299537 (Nature, 2021).

T1: PYD and CARD-deleted NLRP1 (NLRP1ΔΔ), molecule A of the ternary complex (human, UniProt Q9C000-1 148-1364)
T1 sequence (looked up): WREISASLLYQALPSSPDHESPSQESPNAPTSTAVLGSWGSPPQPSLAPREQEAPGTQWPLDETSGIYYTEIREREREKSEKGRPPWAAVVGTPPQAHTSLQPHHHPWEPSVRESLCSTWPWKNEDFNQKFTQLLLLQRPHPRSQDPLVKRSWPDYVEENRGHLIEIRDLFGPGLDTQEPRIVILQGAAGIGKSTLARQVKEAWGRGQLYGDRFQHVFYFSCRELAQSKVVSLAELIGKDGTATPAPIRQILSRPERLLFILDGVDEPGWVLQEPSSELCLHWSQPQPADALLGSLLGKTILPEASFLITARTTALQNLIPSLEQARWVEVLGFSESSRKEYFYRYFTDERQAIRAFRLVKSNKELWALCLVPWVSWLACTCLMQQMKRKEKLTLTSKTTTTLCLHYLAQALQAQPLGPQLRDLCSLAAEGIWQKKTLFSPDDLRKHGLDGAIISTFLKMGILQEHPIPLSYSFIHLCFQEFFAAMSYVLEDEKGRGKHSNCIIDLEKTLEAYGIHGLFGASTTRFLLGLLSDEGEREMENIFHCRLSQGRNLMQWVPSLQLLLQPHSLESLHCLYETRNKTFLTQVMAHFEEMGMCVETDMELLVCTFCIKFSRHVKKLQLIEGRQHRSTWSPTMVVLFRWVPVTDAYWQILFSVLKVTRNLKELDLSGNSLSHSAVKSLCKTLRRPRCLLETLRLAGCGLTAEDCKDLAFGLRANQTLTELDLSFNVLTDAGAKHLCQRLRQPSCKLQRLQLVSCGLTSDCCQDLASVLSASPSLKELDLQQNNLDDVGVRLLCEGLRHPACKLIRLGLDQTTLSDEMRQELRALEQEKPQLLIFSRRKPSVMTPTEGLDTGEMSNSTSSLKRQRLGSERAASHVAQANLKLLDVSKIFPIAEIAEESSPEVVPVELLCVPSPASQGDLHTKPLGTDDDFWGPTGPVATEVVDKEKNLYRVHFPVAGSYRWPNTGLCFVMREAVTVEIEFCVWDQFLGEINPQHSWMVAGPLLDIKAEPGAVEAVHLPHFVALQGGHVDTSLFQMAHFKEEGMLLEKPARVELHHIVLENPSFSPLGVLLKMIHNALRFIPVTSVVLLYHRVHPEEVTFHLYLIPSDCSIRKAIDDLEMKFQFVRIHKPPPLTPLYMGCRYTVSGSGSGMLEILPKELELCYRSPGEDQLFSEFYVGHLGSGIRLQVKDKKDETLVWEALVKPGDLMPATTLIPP

B1: DPP9, short isoform (His-TEV-DPP9), co-purified with NLRP1ΔΔ (enzyme, human)
chain: MATTGTPTADRGDAAATDDPAARFQVQKHSWDGLRSIIHGSRKYSGLIVNKAPHDFQFVQKTDESGPHSHRLYYLGMPYGSRENSLLYSEIPKKVRKEALLLLSWKQMLDHFQATPHHGVYSREEELLRERKRLGVFGITSYDFHSESGLFLFQASNSLFHCRDGGKNGFMVSPMKPLEIKTQCSGPRMDPKICPADPAFFSFINNSDLWVANIETGEERRLTFCHQGLSNVLDDPKSAGVATFVIQEEFDRFTGYWWCPTASWEGSEGLKTLRILYEEVDESEVEVIHVPSPALEERKTDSYRYPRTGSKNPKIALKLAEFQTDSQGKIVSTQEKELVQPFSSLFPKVEYIARAGWTRDGKYAWAMFLDRPQQWLQLVLLPPALFIPSTENEEQRLASARAVPRNVQPYVVYEEVTNVWINVHDIFYPFPQSEGEDELCFLRANECKTGFCHLYKVTAVLKSQGYDWSEPFSPGEDEFKCPIKEEIALTSGEWEVLARHGSKIWVNEETKLVYFQGTKDTPLEHHLYVVSYEAAGEIVRLTTPGFSHSCSMSQNFDMFVSHYSSVSTPPCVHVYKLSGPDDDPLHKQPRFWASMMEAASCPPDYVPPEIFHFHTRSDVRLYGMIYKPHALQPGKKHPTVLFVYGGPQVQLVNNSFKGIKYLRLNTLASLGYAVVVIDGRGSCQRGLRFEGALKNQMGQVEIEDQVEGLQFVAEKYGFIDLSRVAIHGWSYGGFLSLMGLIHKPQVFKVAIAGAPVTVWMAYDTGYTERYMDVPENNQHGYEAGSVALHVEKLPNEPNRLLILHGFLDENVHFFHTNFLVSQLIRAGKPYQLQIYPNERHSIRCPESGEHYEVTLLHFLQEYL
B2: NLRP1-CT derived from NLRP1ΔΔ (UPA subdomain only), molecule B of the ternary complex (domain or fragment, human, UniProt Q9C000-1 1213-1364, looked up)
chain: SPLGVLLKMIHNALRFIPVTSVVLLYHRVHPEEVTFHLYLIPSDCSIRKAIDDLEMKFQFVRIHKPPPLTPLYMGCRYTVSGSGSGMLEILPKELELCYRSPGEDQLFSEFYVGHLGSGIRLQVKDKKDETLVWEALVKPGDLMPATTLIPP

Biological target: T1, PYD and CARD-deleted NLRP1 (NLRP1ΔΔ), …
Test: cryo-EM structure

| Binder | binding result |
| --- | --- |
| B1 | binds |
| B2 | binds |
